Values of other authors, collected in article PMC4888498.

Columns and labels:
[1] = biological target: T1, TvFL3 Thermoplasma volcanium (Thermoplasma volcanium GSS1) (UniProt Q979L0); assay: EMSA
T1 sequence: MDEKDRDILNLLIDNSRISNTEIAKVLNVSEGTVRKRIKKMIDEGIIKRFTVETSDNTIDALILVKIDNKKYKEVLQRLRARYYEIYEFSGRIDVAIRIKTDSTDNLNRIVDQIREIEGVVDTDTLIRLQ

[2] = biological target: T2, Ss-LrpB Sulfolobus solfataricus (Saccharolobus solfataricus P2) (UniProt Q7LX67); assay: EMSA
T2 sequence: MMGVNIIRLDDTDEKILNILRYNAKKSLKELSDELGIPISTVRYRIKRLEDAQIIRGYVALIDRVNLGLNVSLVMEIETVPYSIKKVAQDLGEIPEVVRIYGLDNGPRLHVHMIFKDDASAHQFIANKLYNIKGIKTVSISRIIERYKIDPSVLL

For “GAAATTAATACGACTCACTATGGGGAGAGAGACGGACGAAATTCGTCCCTGTGTGTCGCTAGTTATTGCTCAGCGGTGG (double strand) [19468044-FFRP-2]”, the Ka [1] is given as 9e+06 M⁻¹.

In the case of “GAAATTAATACGACTCACTATGGGGAGAGAGACGGTCGAAATTCGACCCTGTGTGTCGCTAGTTATTGCTCAGCGGTGG (double strand) [19468044-FFRP-4]”, the Ka [1] is given as 7.3e+06 M⁻¹.

For “GAAATTAATACGACTCACTATGGGGAGAGAGACGTACGAAATTCGTACCTGTGTGTCGCTAGTTATTGCTCAGCGGTGG (double strand) [19468044-FFRP-1]”, the Ka [1] is given as 1.28e+07 M⁻¹.

In the case of “GAAATTAATACGACTCACTATGGGGAGAGAGACGTTCGAAATTCGAACCTGTGTGTCGCTAGTTATTGCTCAGCGGTGG (double strand) [19468044-FFRP-3]”, the Ka [1] is given as 8.2e+06 M⁻¹.

In the case of “GAAATTAATACGACTCACTATGGGGAGAGAGACTTGCAAAATTTGCAACTGTGTGTCGCTAGTTATTGCTCAGCGGTGG (double strand) [19468044-FFRP-7]”, the Ka [2] is listed as 3.5e+07 M⁻¹.
